Measurements: the supplement of paper PMC9112550, “Optimization of the antimicrobial peptide Bac7 by deep mutational scanning” (BMC Biology, 2022)

tested on: Escherichia coli TOP10; experiment: shrunken log2 fold change of peptide-encoding DNA abundance (4.5 h post-induction vs induction); higher = less antimicrobial activity (less host growth inhibition); conditions: time post-induction: 4.5 h; library: site-saturation at positions 5, 18, 19, 20
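Also: peptides expressed intracellularly from a pBAD plasmid library in pooled LB shake-flask culture, induced with 0.3% L-arabinose, DNA abundance read by NGS, three biological replicates, DESeq2 with apeglm shrinkage.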

| Sequence | shrunken log2 fold change |
| --- | --- |
| RRIRTRPPRLPRPRPRPERAPRP | 0.55 |
| RRIRTRPPRLPRPRPRPQGLPRP | -0.0814 |
| RRIRARPPRLPRPRPRPQFYPRP | -0.183 |
| RRIRYRPPRLPRPRPRPPWCPRP | -0.338 |
| RRIRVRPPRLPRPRPRPILPPRP | -0.331 |
| RRIRKRPPRLPRPRPRPIYYPRP | -0.37 |
| RRIRYRPPRLPRPRPRPWPTPRP | -0.426 |
| RRIRCRPPRLPRPRPRPSFCPRP | -0.559 |
| RRIRNRPPRLPRPRPRPKQKPRP | 0.0568 |
| RRIRMRPPRLPRPRPRPAEIPRP | 0.11 |
| RRIRWRPPRLPRPRPRPKPKPRP | -0.0893 |
| RRIRFRPPRLPRPRPRPASIPRP | -0.231 |
| RRIRIRPPRLPRPRPRPKRHPRP | -0.0187 |
| RRIRKRPPRLPRPRPRPDVFPRP | -0.162 |
| RRIRMRPPRLPRPRPRPKTNPRP | 0.864 |
| RRIRDRPPRLPRPRPRPQFAPRP | -0.0178 |
| RRIRFRPPRLPRPRPRPIHWPRP | -0.414 |
| RRIRSRPPRLPRPRPRPFQDPRP | -0.01 |
| RRIRQRPPRLPRPRPRPLYDPRP | -0.226 |
| RRIRHRPPRLPRPRPRPIWNPRP | -0.892 |
| RRIRIRPPRLPRPRPRPWLEPRP | -0.293 |
| RRIRHRPPRLPRPRPRPQVPPRP | 0.0019 |

| Sequence | shrunken log2 fold change |
| --- | --- |
| RRIRCRPPRLPRPRPRPLFDPRP | -0.426 |
| RRIRRRPPRLPRPRPRPLMEPRP | -0.0263 |
| RRIRTRPPRLPRPRPRPVDKPRP | -0.362 |
| RRIRNRPPRLPRPRPRPWFWPRP | 0.422 |
| RRIRSRPPRLPRPRPRPQVKPRP | -0.146 |
| RRIRERPPRLPRPRPRPTNEPRP | -0.676 |
| RRIRSRPPRLPRPRPRPTHPPRP | 0.298 |
| RRIRRRPPRLPRPRPRPNLKPRP | -0.0818 |
| RRIRYRPPRLPRPRPRPSCKPRP | -0.908 |
| RRIRSRPPRLPRPRPRPVVVPRP | 0.1 |
| RRIRWRPPRLPRPRPRPLHSPRP | 0.215 |
| RRIRWRPPRLPRPRPRPWYFPRP | 0.275 |
| RRIRGRPPRLPRPRPRPGTNPRP | 0.133 |
| RRIRNRPPRLPRPRPRPIWQPRP | 0.0123 |
| RRIRCRPPRLPRPRPRPCTAPRP | -0.361 |
| RRIRRRPPRLPRPRPRPTDLPRP | -0.162 |
| RRIRKRPPRLPRPRPRPMDKPRP | 0.166 |
| RRIRVRPPRLPRPRPRPRYQPRP | 0.171 |
| RRIRYRPPRLPRPRPRPAMMPRP | 0.0997 |
| RRIRRRPPRLPRPRPRPWFAPRP | 0.204 |
| RRIRSRPPRLPRPRPRPFTYPRP | -0.0179 |
| RRIRNRPPRLPRPRPRPSARPRP | 0.256 |

| Sequence | shrunken log2 fold change |
| --- | --- |
| RRIRERPPRLPRPRPRPNLPPRP | -0.0648 |
| RRIRTRPPRLPRPRPRPHTHPRP | -0.873 |
| RRIRMRPPRLPRPRPRPSVHPRP | -0.0707 |
| RRIRMRPPRLPRPRPRPKELPRP | 0.642 |
| RRIRGRPPRLPRPRPRPVCPPRP | 0.385 |
| RRIRWRPPRLPRPRPRPTFAPRP | 0.327 |
| RRIRTRPPRLPRPRPRPQAWPRP | 4.37 |
| RRIRRRPPRLPRPRPRPQRVPRP | 0.155 |
| RRIRFRPPRLPRPRPRPFDAPRP | -0.0477 |
| RRIRWRPPRLPRPRPRPTWCPRP | 0.242 |
| RRIRNRPPRLPRPRPRPINDPRP | 0.0259 |
| RRIRTRPPRLPRPRPRPYCMPRP | -1.28 |
| RRIRFRPPRLPRPRPRPYQTPRP | -0.0618 |
| RRIRARPPRLPRPRPRPWKHPRP | -0.0402 |
| RRIRHRPPRLPRPRPRPYHHPRP | -0.607 |
| RRIRYRPPRLPRPRPRPEAGPRP | -0.0468 |
| RRIRDRPPRLPRPRPRPDKSPRP | -0.119 |
| RRIRKRPPRLPRPRPRPAWKPRP | -0.116 |
| RRIRKRPPRLPRPRPRPRRCPRP | 0.444 |
| RRIRARPPRLPRPRPRPSVAPRP | 0.485 |
| RRIRIRPPRLPRPRPRPMIGPRP | -0.477 |
| RRIRRRPPRLPRPRPRPRNMPRP | 0.112 |

| Sequence | shrunken log2 fold change |
| --- | --- |
| RRIRLRPPRLPRPRPRPEDPPRP | 0.0223 |
| RRIRARPPRLPRPRPRPMAEPRP | 0.238 |
| RRIRERPPRLPRPRPRPEERPRP | 0.0375 |
| RRIRDRPPRLPRPRPRPACQPRP | 0.0344 |
| RRIRYRPPRLPRPRPRPFFPPRP | -0.682 |
| RRIRARPPRLPRPRPRPVHIPRP | -0.177 |
| RRIRCRPPRLPRPRPRPLWQPRP | -0.147 |
| RRIRARPPRLPRPRPRPWNKPRP | -0.0945 |
| RRIRLRPPRLPRPRPRPWVAPRP | 0.29 |
| RRIRSRPPRLPRPRPRPQRFPRP | -0.152 |
| RRIRYRPPRLPRPRPRPRMNPRP | 0.0193 |
| RRIRARPPRLPRPRPRPVRHPRP | 0.399 |
| RRIRIRPPRLPRPRPRPMGYPRP | -0.148 |
| RRIRGRPPRLPRPRPRPWPSPRP | 0.258 |
| RRIRGRPPRLPRPRPRPYRVPRP | -0.0183 |
| RRIRQRPPRLPRPRPRPNRNPRP | -0.658 |
| RRIRDRPPRLPRPRPRPNPRPRP | 0.0975 |
| RRIRWRPPRLPRPRPRPCWIPRP | -0.072 |
| RRIRHRPPRLPRPRPRPEKAPRP | -0.0238 |
| RRIRHRPPRLPRPRPRPENYPRP | -0.327 |
| RRIRVRPPRLPRPRPRPSTSPRP | -0.0898 |
| RRIRIRPPRLPRPRPRPCSTPRP | -0.484 |

| Sequence | shrunken log2 fold change |
| --- | --- |
| RRIRQRPPRLPRPRPRPKYQPRP | -0.369 |
| RRIRGRPPRLPRPRPRPRGAPRP | 1.66 |
| RRIRFRPPRLPRPRPRPLWFPRP | 0.00985 |
| RRIRLRPPRLPRPRPRPPRFPRP | 0.209 |
| RRIRNRPPRLPRPRPRPFPEPRP | -0.293 |
| RRIRVRPPRLPRPRPRPKWYPRP | -0.194 |
| RRIRVRPPRLPRPRPRPRCRPRP | -0.0394 |
| RRIRMRPPRLPRPRPRPINKPRP | -0.375 |
| RRIRGRPPRLPRPRPRPQHVPRP | -0.12 |
| RRIRYRPPRLPRPRPRPHNIPRP | -0.238 |
| RRIRHRPPRLPRPRPRPKMWPRP | 0.451 |
| RRIRLRPPRLPRPRPRPCMQPRP | -0.154 |
| RRIRPRPPRLPRPRPRPPHNPRP | 0.242 |
| RRIRRRPPRLPRPRPRPTRAPRP | 0.738 |
| RRIRPRPPRLPRPRPRPELFPRP | 0.25 |
| RRIRSRPPRLPRPRPRPWFWPRP | 0.326 |
| RRIRRRPPRLPRPRPRPTWYPRP | 0.0312 |
| RRIRGRPPRLPRPRPRPRKSPRP | 0.326 |
| RRIRRRPPRLPRPRPRPCVRPRP | 0.11 |
| RRIRVRPPRLPRPRPRPMRTPRP | -0.0139 |
| RRIRARPPRLPRPRPRPWHIPRP | 0.0256 |
